Results taken from publication PMC7442826 (2020).

B1: EHBP1 CH (calponin homology) domain [human] / EHBP1 bMERB domain (bMERB_(1060-1212), full-length bMERB domain) [human] (parent complex)
chain 1: GRKPNASQSLLVWCKEVTKNYRGVKITNFTTSWRNGLSFCAILHHFRPDLIDYKSLNPQDIKENNKKAYDGFASIGISRLLEPSDMVLLAIPDKLTVMTYLYQIRAHFSGQ
chain 2: not shown

Variants of: B1
Experiment: ITC

Variant	Kd
chain 1 D93A	43.5 µM

Variants of: B1
Experiment: ITC
Remark: another data set of the same source

Variant	Kd
chain 1 Y102A	5.65 µM

Variants of: B1
Experiment: ITC
Remark: another data set of the same source

Variant	Kd
chain 1 Q103A	3.85 µM

Variants of: B1
Experiment: ITC
Remark: another data set of the same source

Variant	Kd
chain 1 M98A	7.6 µM
